Laboratory results as given in the supplement of paper PMC10567573.

B1: GLT8D2 (parent)
chain: QEAKLLHWNGRHKPWDFPSVHNDL

Variants of: B1
Experiment: protein stability index of a GFP-peptide fusion (GPS, HEK-293T) (PSI 1-6); higher = more stable
Settings: c terminus: a fixed tail appended
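Further: lentivirally expressed fusions sorted by FACS into six bins by GFP to DsRed ratio, PSI derived from sequencing read proportions per bin multiplied by bin number.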

| Variant | protein stability index |
| --- | --- |
| QEAKLLHWNGRHKPWDFPSVHNPL | 2.27 |
| QEAKLLHWNGRHKPWDFPSVHNKL | 3.01 |
| QEAKLLHWNGRHKPWDFPSVHNVL | 2.81 |
| QEAKLLHWNGRHKPWDFPSVHNCL | 2.43 |
| QEAKLLHWNGRHKPWDFPSVHNNL | 1.86 |
| QEAKLLHWNGRHKPWDFPSVHNTL | 2.55 |
| QEAKLLHWNIRHKPWDFPSVHNDL | 2.48 |
| QEAKLLHWNQRHKPWDFPSVHNDL | 2.7 |
| QEAKLLHWNWRHKPWDFPSVHNDL | 2.5 |
| QEAKLLHWNSRHKPWDFPSVHNDL | 2.69 |
| QEAKLLHWNPRHKPWDFPSVHNDL | 2.69 |
| QEAKLLHWNHRHKPWDFPSVHNDL | 2.48 |
| QEAKLLHWNGRHKPWDFPNVHNDL | 2.84 |
| QEAKLLHWNGRHKPWDFPVVHNDL | 2.56 |
| QEAKLLHWNGRHKPWDFPGVHNDL | 2.51 |
| QEAKLLHWNGRHKPWDFPTVHNDL | 2.33 |
| QEAKLLHWNGRHKPWDFPKVHNDL | 2.6 |
| QEAKLLHWNGRHKPWDFPEVHNDL | 3.92 |
| QEAKLLHWNGRHKPWDFPHVHNDL | 2.58 |
| QEAKLLHWNGRHKPWDFPRVHNDL | 2.38 |
| QEAKLLHWNGRHKPWDFPAVHNDL | 3.21 |
| QEAKLLHWNGRHKPWDFPFVHNDL | 2.31 |
| QEAKLLHWNGRHKPWDFPPVHNDL | 2.7 |
| QEAKLLHWNGRHKPWDFPMVHNDL | 2.79 |

| Variant | protein stability index |
| --- | --- |
| QEAKLLHWNGRHKPWDFPQVHNDL | 2.95 |
| QPAKLLHWNGRHKPWDFPSVHNDL | 2.58 |
| QLAKLLHWNGRHKPWDFPSVHNDL | 1.96 |
| QWAKLLHWNGRHKPWDFPSVHNDL | 2.2 |
| QYAKLLHWNGRHKPWDFPSVHNDL | 2.04 |
| QKAKLLHWNGRHKPWDFPSVHNDL | 2.18 |
| QTAKLLHWNGRHKPWDFPSVHNDL | 2.18 |
| QEAKLLHWNGRHKPWDFPSTHNDL | 2.52 |
| QEAKLLHWNGRHKPWDFPSYHNDL | 2.06 |
| QEAKLLHWNGRHKPWDFPSNHNDL | 3.23 |
| QEAKLLHWNGRHKPWDFPSCHNDL | 2.54 |
| QEAKLLHWNGRHKPWDFWSVHNDL | 1.8 |
| QEAKLLHWNGRHKPWDFSSVHNDL | 2.59 |
| QEAKLLHWNGRHKPWDFYSVHNDL | 2.24 |
| QEAKLLHWNGRHKPWDFRSVHNDL | 2.41 |
| QEAKLLHWNGRHKPWDFKSVHNDL | 2.99 |
| QEAKLLHWNGRHKPWDFASVHNDL | 2.23 |
| QEAKLLHWNGRHKPWDFNSVHNDL | 2.72 |
| QEAKLLHWNGRHKPWDPPSVHNDL | 3.24 |
| QEAKLLHWNGRHKPWDGPSVHNDL | 3.15 |
| QEAKLLHWNGRHKPWDIPSVHNDL | 3.1 |
| QEAKLLHWNGRHKPWDSPSVHNDL | 3.96 |
| QEAKLLHWNGRHKPWDEPSVHNDL | 4.18 |
| QEAKLLHWNGRHKPWDKPSVHNDL | 3.16 |

| Variant | protein stability index |
| --- | --- |
| QEAKLLHWNGRHKPWDCPSVHNDL | 3.14 |
| QEAKLLHWNGRHKPWDWPSVHNDL | 2.58 |
| QEAKLLHWNGRHKPWDHPSVHNDL | 3.24 |
| QEAKLLHWNGRVKPWDFPSVHNDL | 2.61 |
| QEAKLLHWNGRNKPWDFPSVHNDL | 2.65 |
| QEAKLLHWNGRLKPWDFPSVHNDL | 2.45 |
| QEAKLLHWNGRQKPWDFPSVHNDL | 2.58 |
| QEAKLLHWNGRYKPWDFPSVHNDL | 2.28 |
| QEAKLLHWNGRKKPWDFPSVHNDL | 2.73 |
| QEAKLLHWNGRCKPWDFPSVHNDL | 2.71 |
| QEAKLLHWNGRAKPWDFPSVHNDL | 2.36 |
| QEAKLLHWNGRGKPWDFPSVHNDL | 2.59 |
| TEAKLLHWNGRHKPWDFPSVHNDL | 2.49 |
| KEAKLLHWNGRHKPWDFPSVHNDL | 2.49 |
| DEAKLLHWNGRHKPWDFPSVHNDL | 3.54 |
| YEAKLLHWNGRHKPWDFPSVHNDL | 1.79 |
| VEAKLLHWNGRHKPWDFPSVHNDL | 2 |
| EEAKLLHWNGRHKPWDFPSVHNDL | 3.02 |
| QEEKLLHWNGRHKPWDFPSVHNDL | 3.51 |
| QEHKLLHWNGRHKPWDFPSVHNDL | 2.83 |
| QEQKLLHWNGRHKPWDFPSVHNDL | 2.58 |
| QEDKLLHWNGRHKPWDFPSVHNDL | 3.47 |
| QECKLLHWNGRHKPWDFPSVHNDL | 2.23 |
| QELKLLHWNGRHKPWDFPSVHNDL | 2.59 |

| Variant | protein stability index |
| --- | --- |
| QEVKLLHWNGRHKPWDFPSVHNDL | 2.5 |
| QEKKLLHWNGRHKPWDFPSVHNDL | 2.59 |
| QEAKLLHWNGRHKPWDFPSVQNDL | 2.94 |
| QEAKLLHWNGRHKPWDFPSVFNDL | 2.75 |
| QEAKLLHWNGRHKPWDFPSVCNDL | 2.48 |
| QEAKLLHWNGRHKPWDFPSVMNDL | 3.05 |
| QEAKLLHWNGRHKPWDFPSVANDL | 2.9 |
| QEAKLLHWNGRHKPWDFPSVSNDL | 3.21 |
| QEAKLLHWNGRHKPWDFPSVVNDL | 2.67 |
| QEAKLLHWNGRHKPWDFPSVDNDL | 3.39 |
| QEAKFLHWNGRHKPWDFPSVHNDL | 2.51 |
| QEAKTLHWNGRHKPWDFPSVHNDL | 2.81 |
| QEAKPLHWNGRHKPWDFPSVHNDL | 3.05 |
| QEAKWLHWNGRHKPWDFPSVHNDL | 2.59 |
| QEAKKLHWNGRHKPWDFPSVHNDL | 3.14 |
| QEAKNLHWNGRHKPWDFPSVHNDL | 2.67 |
| QEAKGLHWNGRHKPWDFPSVHNDL | 3.26 |
| QEAKDLHWNGRHKPWDFPSVHNDL | 3.3 |
| QEAKLLHWNGRHKPWDFPSVHNDV | 2.42 |
| QEAKLLHWNGRHKPWDFPSVHNDE | 4.01 |
| QEAKLLHWNGRHKPWDFPSVHNDG | 3.07 |
| QEAKLLHWNGRHKPWDFPSVHNDN | 3.25 |
| QEAKLLHWNGRHKPWDFPSVHNDK | 2.87 |
| QEAKLLHWNGRHKPWDFPSVHNDH | 2.65 |

| Variant | protein stability index |
| --- | --- |
| QEAKLLHWNGRHKPWDFPSVHNDD | 3.75 |
| QEAKLLHWNGRHKPWDFPSVHNDS | 3.51 |
| QEAKLLHCNGRHKPWDFPSVHNDL | 3.2 |
| QEAKLLHLNGRHKPWDFPSVHNDL | 3.24 |
| QEAKLLHSNGRHKPWDFPSVHNDL | 3.47 |
| QEAKLLHTNGRHKPWDFPSVHNDL | 3.23 |
| QEAKLLHHNGRHKPWDFPSVHNDL | 2.85 |
| QEAKLLHNNGRHKPWDFPSVHNDL | 3.46 |
| QEAKLLHMNGRHKPWDFPSVHNDL | 2.56 |
| QEAKLLAWNGRHKPWDFPSVHNDL | 2.87 |
| QEAKLLPWNGRHKPWDFPSVHNDL | 2.94 |
| QEAKLLWWNGRHKPWDFPSVHNDL | 2.84 |
| QEAKLLTWNGRHKPWDFPSVHNDL | 2.88 |
| QEAKLLCWNGRHKPWDFPSVHNDL | 2.25 |
| QEAKLLIWNGRHKPWDFPSVHNDL | 2.25 |
| QEAKLLHWNGRHKPWDFPSVHDDL | 3.27 |
| QEAKLLHWNGRHKPWDFPSVHTDL | 2.5 |
| QEAKLLHWNGRHKPWDFPSVHIDL | 2.06 |
| QEAKLLHWNGRHKPWDFPSVHPDL | 2.57 |
| QEAKLLHWNGRHKPWDFPSVHYDL | 1.91 |
| QEAKLLHWNGRHKPWDFPSVHRDL | 2.35 |
| QEAKLLHWNGRHKPWDFPSVHKDL | 2.7 |
| QEAKLLHWNGRHKPWDFPSVHLDL | 2.53 |
| QEAKLLHWNGRHRPWDFPSVHNDL | 2.86 |

| Variant | protein stability index |
| --- | --- |
| QEAKLLHWNGRHIPWDFPSVHNDL | 2.35 |
| QEAKLLHWNGRHNPWDFPSVHNDL | 2.77 |
| QEAKLLHWNGRHGPWDFPSVHNDL | 2.62 |
| QEAKLLHWNGRHQPWDFPSVHNDL | 2.7 |
| QEAKLLHWNGRHVPWDFPSVHNDL | 2.1 |
| QEAKLLHWNGRHLPWDFPSVHNDL | 2.26 |
| QEAKLLHWNGRHYPWDFPSVHNDL | 2.43 |
| QEAKLLHWNGRHHPWDFPSVHNDL | 2.47 |
| QEAKLLHWNGRHKPVDFPSVHNDL | 3.49 |
| QEAKLLHWNGRHKPYDFPSVHNDL | 2.62 |
| QEAKLLHWNGRHKPDDFPSVHNDL | 3.59 |
| QEAKLLHWNGRHKPGDFPSVHNDL | 3.76 |
| QEAKLLHWNGRHKPRDFPSVHNDL | 3.55 |
| QEAKLLHWNGRHKPPDFPSVHNDL | 3.81 |
| QEAKLLHWNGRHKPTDFPSVHNDL | 3.3 |
| QEAKLLHWNGRHKPNDFPSVHNDL | 3.43 |
| QEAKLLHWNGRHKPKDFPSVHNDL | 3.27 |
| QEAKLLHWWGRHKPWDFPSVHNDL | 1.75 |
| QEAKLLHWDGRHKPWDFPSVHNDL | 2.87 |
| QEAKLLHWSGRHKPWDFPSVHNDL | 2.67 |
| QEAKLLHWMGRHKPWDFPSVHNDL | 2.1 |
| QEAKLLHWGGRHKPWDFPSVHNDL | 2.59 |
| QEAKLLHWAGRHKPWDFPSVHNDL | 2.71 |
| QEAKLLHWKGRHKPWDFPSVHNDL | 2.92 |

| Variant | protein stability index |
| --- | --- |
| QEAKLLHWEGRHKPWDFPSVHNDL | 2.73 |
| QEAKLLHWYGRHKPWDFPSVHNDL | 2.33 |
| QEAKLLHWQGRHKPWDFPSVHNDL | 2.76 |
| QEAKLLHWNGRHKPWFFPSVHNDL | 1.58 |
| QEAKLLHWNGRHKPWGFPSVHNDL | 2.39 |
| QEAKLLHWNGRHKPWPFPSVHNDL | 2.46 |
| QEAKLLHWNGRHKPWSFPSVHNDL | 2.46 |
| QEAKLLHWNGRHKPWMFPSVHNDL | 2.12 |
| QEAKLLHWNGRHKPWKFPSVHNDL | 2.26 |
| QEAKLLHWNGRHKIWDFPSVHNDL | 2.03 |
| QEAKLLHWNGRHKFWDFPSVHNDL | 2.45 |
| QEAKLLHWNGRHKYWDFPSVHNDL | 2.09 |
| QEAKLLHWNGRHKTWDFPSVHNDL | 2.52 |
| QEAKLLHWNGRHKVWDFPSVHNDL | 2.09 |
| QEAKLLHWNGRHKKWDFPSVHNDL | 2.69 |
| QEAKLLHWNGRHKNWDFPSVHNDL | 2.66 |
| QEAKLLHWNGPHKPWDFPSVHNDL | 2.33 |
| QEAKLLHWNGWHKPWDFPSVHNDL | 2.18 |
| QEAKLLHWNGQHKPWDFPSVHNDL | 3.35 |
| QEAKLLHWNGSHKPWDFPSVHNDL | 2.82 |
| QEAKLLHWNGAHKPWDFPSVHNDL | 3.24 |
| QEAKLLHWNGFHKPWDFPSVHNDL | 2.58 |
| QEAKLLHWNGCHKPWDFPSVHNDL | 2.55 |
| QEAKLLHWNGIHKPWDFPSVHNDL | 2.76 |

| Variant | protein stability index |
| --- | --- |
| QEAKLLHWNGEHKPWDFPSVHNDL | 3.58 |
| QEAKLLHWNGVHKPWDFPSVHNDL | 2.62 |
| QEAKLLHWNGMHKPWDFPSVHNDL | 3.1 |
| QEAILLHWNGRHKPWDFPSVHNDL | 2.47 |
| QEAFLLHWNGRHKPWDFPSVHNDL | 2 |
| QEAGLLHWNGRHKPWDFPSVHNDL | 2.89 |
| QEALLLHWNGRHKPWDFPSVHNDL | 2.56 |
| QEADLLHWNGRHKPWDFPSVHNDL | 2.67 |
| QEANLLHWNGRHKPWDFPSVHNDL | 2.68 |
| QEACLLHWNGRHKPWDFPSVHNDL | 2.3 |
| QEAVLLHWNGRHKPWDFPSVHNDL | 2.34 |
| QEAHLLHWNGRHKPWDFPSVHNDL | 2.84 |
| QEAMLLHWNGRHKPWDFPSVHNDL | 2.64 |
| QEAKLEHWNGRHKPWDFPSVHNDL | 3.74 |
| QEAKLQHWNGRHKPWDFPSVHNDL | 2.76 |
| QEAKLFHWNGRHKPWDFPSVHNDL | 2.83 |
| QEAKLAHWNGRHKPWDFPSVHNDL | 2.87 |
| QEAKLMHWNGRHKPWDFPSVHNDL | 2.3 |
| QEAKLTHWNGRHKPWDFPSVHNDL | 2.68 |
| QEAKLIHWNGRHKPWDFPSVHNDL | 2.67 |
